US20110020218A1

Molecular target: constitutively active mutant (CAM) Asn119Ser CXCR4 receptor (human) (UniProt P61073)
Assay: cell-based or functional assay

Sequence of constitutively active mutant (CAM) Asn119Ser CXCR4 receptor (human) (P61073 whole entry N119S): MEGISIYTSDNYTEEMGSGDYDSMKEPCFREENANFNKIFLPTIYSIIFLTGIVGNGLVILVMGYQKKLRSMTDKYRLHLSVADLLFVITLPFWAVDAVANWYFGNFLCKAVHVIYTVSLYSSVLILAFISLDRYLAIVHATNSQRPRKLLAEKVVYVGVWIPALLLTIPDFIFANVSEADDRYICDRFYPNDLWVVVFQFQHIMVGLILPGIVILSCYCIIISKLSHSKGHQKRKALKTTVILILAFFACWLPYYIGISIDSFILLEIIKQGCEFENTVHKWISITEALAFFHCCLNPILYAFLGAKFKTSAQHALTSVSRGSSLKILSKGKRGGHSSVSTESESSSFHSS

inhibition of SDF-1-stimulated [35S]GTPγS binding: -159% | inhibition of basal [35S]GTPγS binding: -17%
Substance: T140 (peptide)
